Reference: US20240123058A1

Assays:
[1] = biological target: EBV gB protein ectodomain (24-683 aa) of the substituted M81 strain gB protein, C-terminal 6×His tag (EBV M81 strain) (UniProt P0C762); assay: competition ELISA on coated gB: unlabelled primary antibody at 10 µg/mL, then HRP-labelled AMMO5 as secondary
[2] = biological target: EBV gB protein ectodomain (24-683 aa) of the substituted M81 strain gB protein, C-terminal 6×His tag (EBV M81 strain) (UniProt P0C762); assay: competition ELISA on coated gB: unlabelled primary antibody at 10 µg/mL, then HRP-labelled 3A3 as secondary
[3] = biological target: EBV gB protein ectodomain (24-683 aa) of the substituted M81 strain gB protein, C-terminal 6×His tag (EBV M81 strain) (UniProt P0C762); assay: competition ELISA on coated gB: unlabelled primary antibody at 10 µg/mL, then HRP-labelled 3A5 as secondary

mouse monoclonal antibody 72A1
competition rate [1]: -9.3% | competition rate [2]: -1.4% | competition rate [3]: 8%
